Key:
LLC tumor tissues = test: H&E staining of necrotic region in LLC tumors; assay type: in vivo, mouse; conditions: 10 mg/kg i.p., five administrations, compared to Fc- or 4H10-treated group
Experimental: To see the effects of the structurally and functionally normalized blood vessels in tumor by treatment of antibody 10D6 on the tumor tissues, referring to the method of Example 14, LLC tumor cells were subcutaneously injected into mice. When the size of tumors reached 50˜100 mm^3, anti-Ang2 antibody 10D6 was injected at the concentration of 10 mg/kg via an intraperitoneal injection three times a week and the size of the tumors was measured. After administering the antibody five-times, the tumor sections were stained with H&E according to standard protocol, and then, the Eosin+ cell necrotic region in tumor tissues was confirmed. For comparison, the same experiment was performed to a control group treated with Fc of IgG1 and a comparative group treated with antibody 4H10 (refer to Example 3).

[1] = system: lymphatic endothelial cells; test: Cell migration assay (xCelligence RTCA); assay type: cell-based; conditions: 2 ug/ml Ang2 with antibody; slope (1/hr)
Experimental: Also, the measurement of the mobility of lymphatic endothelial cells was conducted using xCelligence RTCA (Realtime cell analyzer; GE Healthcare). The RTCA is a non-invasive cell monitoring system by measuring impedance in real time to identify the change of a cell. To perform a cell migration assay, a CIM-plate16 (GE Healthcare) with a lower chamber and an upper chamber was used wherein microelectrodes for measuring impedance are arranged in the upper chamber and if the cells seeded into the chamber migrate through fine holes, the migration degree of the cells can be identified through their adhesion to the microelectrodes, and it was referred to as migration index. The lymphatic endothelial cells (P5-7; Lonza) which grew up in EGM-2 media (Lonza) were cultured in 1% FBS-added EBM media for 6 hours. 2 ug/ml of Ang2 and antibody 10D6 in 2% FBS-added EBM media were added to each well of the lower chamber of the CIM-plate 16, which was assembled with the upper chamber coated with fibronectin (Sigma). For efficiency comparison, an anti-Ang2 antibody (MedImmune Co.) was used. 30 ul of serum-free EBM media was each added to the upper chamber and then, for equilibration between the plate and media, while being placed in an incubator for 1 hour, the CIM-plate was installed on a device station in the incubator and then, background values were measured. […]

[2] = system: metastasis of lung cancer cells to near lymph nodes; test: LLC tumor metastasis to inguinal lymph nodes; assay type: in vivo, mouse; conditions: 10 mg/kg i.p., five administrations, compared to Fc- or 4H10-treated group
Experimental: To see the degree of tumor metastasis to near lymph nodes when treated with antibody 10D6, referring to the method of Example 14, LLC tumor cells were subcutaneously injected into mice. When the size of tumors reached 50˜100 mm^3, anti-Ang2 antibody 10D6 was injected at the concentration of 10 mg/kg via an intraperitoneal injection three times a week and the size of the tumors was measured. After administering the antibody five-times, inguinal lymph nodes were separated, and the obtained tissue sections were immunostained using rabbit anti-LYVE-1 antibody (1:200, Millipore) and mouse pan-Cytokeratin antibody (1;200, Abcam).
For comparison, the same experiment was performed to a control group treated with Fc of IgG1 and a comparative group treated with antibody 4H10 (refer to Example 3).

ICAM-1 = test: LPS-induced mRNA expression of ICAM-1 in HUVEC (qPCR); assay type: cell-based, human; conditions: 100 ng/ml LPS 5 hours, 0.2 ug/ml Ang1 or 0.1 ug/ml Ang2 + 0.5 ug/ml antibody
Experimental: To see anti-inflammatory effects by antibody 10D6, HUVEC (ATCC) cells (4×10^5) were treated with Ang2 alone or Ang2 together with antibody 10D6, and a group in which Ang1 and Ang2 (R&D systems) and Regeneron Co. antibody (RG antibody) were co-treated was included as a control group. HUVEC cells were treated with 0.2 ug/ml of Ang1, 0.1 ug/ml of Ang2, or 0.1 ug/ml of Ang2 and 0.5 ug/ml of antibody, respectively and after 30-min. pre-incubation, they were treated with 100 ng/ml of LPS (Sigma) to induce inflammatory response and incubated for 5 hours.
The degree of the inflammatory response was identified by measuring the mRNA expression degree of an inflammatory adhesion substance (ICAM-1, E-selectin). The cells were washed using PBS, RNA was extracted using RNeasy Mini kit (Qiagen), and among them, 2 ug of RNA was synthesized into cDNA using Transcriptor First Strand cDNA synthesis kit (Roche). qPCR reaction was performed using RT2 SYBR™ Green Mastermix (Qiagen) and LightCycler™ 480 Real-Time PCR System (Roche). As an internal control for calibrating the amount of RNA in a sample, HPRT1 was used, and qPCR complied with the following procedures with regard to all the primers.
Step 1: 95° C., 10 min; Step 2 (45 cycles): Step 2-1: 95° C., 15 sec; Step 2-2: 60° C., 1 min; Step 3: 65° C., 15 sec; Step 4: 95° C., continuous (every 20° C.); Step 6: 40° C., 10 sec.

[3] = system: HL-60 cells adhered to HUVEC cells; test: Binding between inflammatory cells HL-60 and HUVEC induced by TNF-a; assay type: cell-based, human; conditions: 1 ng/ml TNF-a; 0.2 ug/ml Ang1 or 0.1 ug/ml Ang2 + 0.5 ug/ml 10D6
Experimental: Meanwhile, if the expression of inflammatory adhesion substances (ICAM-1, E-selectin, etc.) of vascular endothelial cells is increased, binding between the inflammatory cells and the vascular endothelial cells are accelerated and inflammatory response is thus induced. To confirm this, an experiment for measuring binding between inflammatory cells HL-60 (ATCC) and HUVEC was conducted.
HUVEC cells (4×10^5) were cultured in a 24-mutiwell plate and treated with 0.1 ug/ml of Ang2 alone or 0.1 ug/ml of Ang2 together with 0.5 ug/ml of antibody 10D6, and a group in which 0.2 ug/ml of Ang1, and 0.1 ug/ml of Ang2 (R&D systems) and 0.5 ug/ml of Regeneron Co. antibody (RG antibody) were co-treated was included as a control group. As above, the HUVEC cells were treated with Angiopoietin and antibody and after 30-min. pre-incubation, they were treated with 1 ng/ml of TNF-a (eBioscience) to induce inflammatory response and incubated for 2 hours and 30 min.
After the HUVEC cells were washed with complete media (Lonza), HL-60 cells dyed with Calcein-AM (BD bioscience) solution were added at the amount of 2.5×10^5 cells to each well and incubated for 1 hour. […] The obtained lysate was transported to a 96-well plate, and fluorescence strengths derived from the HL-60 cells were measured at 485/535 nm (Ex/Em) setting using an Envision 2104 multilabel Reader (Perkin Elmer).

B1: 10D6: mouse anti-Ang2 monoclonal antibody from hybridoma KCLRF-BP-00295; heavy chain variable region SEQ ID NO: 7, light chain variable region SEQ ID NO: 9 (antibody, V domains shown)
VH: DVQLQESGPGLVKPSQSLSLTCTVTGYSITSDYAWNWIRQFPGNKLEWMGYINYSGNTDYNPSLKSRSSITRDTSKNQFFLQLNSVTTGDTATYYCARGNFEGAMDYWGQGTSVTVSS
VL: SIVMTQTPKFLLVSAGDRVTITCKASQSVSNDVAWYQQKPGQSPKLLIYYASNRYPGVPDRFTGSGYGTDFTFTISTVQAEDLAVYFCQQDYSSPWTFGGGTKLEIK
modifications: Synthetic (Heavy chain variable region of an anti-Ang2 antibody); Synthetic (Light chain variable region of anti-Ang2 antibody)
- cell necrotic region in tumor tissues (LLC tumor tissues): smaller
- migration of lymphatic endothelial cells [1]: increased
- number of metastatic lung cancer in lymph nodes [2]: decreased
- size of lymph nodes [2]: decreased
- expression of ICAM-1 induced by LPS (ICAM-1): remarkably suppressed
- binding between HUVEC cells and HL-60 cells induced by TNF-a [3]: remarkably suppressed
